The target in test [1] is Cholera toxin B subunit expressed in E. coli (eCTB) (Vibrio cholerae) (UniProt P01556). Briefly: non-heat-denaturing SDS-PAGE.
For test [2] the target is unchanged. Briefly: non-heat-denaturing SDS-PAGE. This is another data set of the same source.

Like-named read-outs stand apart in the source and are kept apart here.

What is called stoichiometry N is a count of units in the complex or per binding partner. In the case of “Cholera toxin B subunit expressed in E. coli (eCTB) (from UniProt P01556 22-124) (natural protein)”, the stoichiometry N amounted to 5 in test [1] and 10 in test [2].

Source of the values: paper PMC3591335.
